For the assay, the target named is FLAG-tagged 3D7 CLAG3 protein (3D7 CLAG3.1 with tandem miniSOG-FLAG tag, TFLC3 parasite) (Plasmodium falciparum (3D7 line)) (UniProt O77310). Kind of assay: co-IP; TFLC3 trophozoite-infected cell lysate in 50 mM Tris-HCl pH 7.4, 150 mM NaCl, 5 mM EDTA, 1% Triton X-100; anti-FLAG agarose beads, at least 2 h at 4°C; immunoblot probed with anti-HA; eluate compared with serial dilutions of the input. A general note: Immunoblotting shows a protein as a band on a membrane.

One substance from paper PMC5941077 can be followed below.

Sequence of UniProt O77310 (O77310 25-1417): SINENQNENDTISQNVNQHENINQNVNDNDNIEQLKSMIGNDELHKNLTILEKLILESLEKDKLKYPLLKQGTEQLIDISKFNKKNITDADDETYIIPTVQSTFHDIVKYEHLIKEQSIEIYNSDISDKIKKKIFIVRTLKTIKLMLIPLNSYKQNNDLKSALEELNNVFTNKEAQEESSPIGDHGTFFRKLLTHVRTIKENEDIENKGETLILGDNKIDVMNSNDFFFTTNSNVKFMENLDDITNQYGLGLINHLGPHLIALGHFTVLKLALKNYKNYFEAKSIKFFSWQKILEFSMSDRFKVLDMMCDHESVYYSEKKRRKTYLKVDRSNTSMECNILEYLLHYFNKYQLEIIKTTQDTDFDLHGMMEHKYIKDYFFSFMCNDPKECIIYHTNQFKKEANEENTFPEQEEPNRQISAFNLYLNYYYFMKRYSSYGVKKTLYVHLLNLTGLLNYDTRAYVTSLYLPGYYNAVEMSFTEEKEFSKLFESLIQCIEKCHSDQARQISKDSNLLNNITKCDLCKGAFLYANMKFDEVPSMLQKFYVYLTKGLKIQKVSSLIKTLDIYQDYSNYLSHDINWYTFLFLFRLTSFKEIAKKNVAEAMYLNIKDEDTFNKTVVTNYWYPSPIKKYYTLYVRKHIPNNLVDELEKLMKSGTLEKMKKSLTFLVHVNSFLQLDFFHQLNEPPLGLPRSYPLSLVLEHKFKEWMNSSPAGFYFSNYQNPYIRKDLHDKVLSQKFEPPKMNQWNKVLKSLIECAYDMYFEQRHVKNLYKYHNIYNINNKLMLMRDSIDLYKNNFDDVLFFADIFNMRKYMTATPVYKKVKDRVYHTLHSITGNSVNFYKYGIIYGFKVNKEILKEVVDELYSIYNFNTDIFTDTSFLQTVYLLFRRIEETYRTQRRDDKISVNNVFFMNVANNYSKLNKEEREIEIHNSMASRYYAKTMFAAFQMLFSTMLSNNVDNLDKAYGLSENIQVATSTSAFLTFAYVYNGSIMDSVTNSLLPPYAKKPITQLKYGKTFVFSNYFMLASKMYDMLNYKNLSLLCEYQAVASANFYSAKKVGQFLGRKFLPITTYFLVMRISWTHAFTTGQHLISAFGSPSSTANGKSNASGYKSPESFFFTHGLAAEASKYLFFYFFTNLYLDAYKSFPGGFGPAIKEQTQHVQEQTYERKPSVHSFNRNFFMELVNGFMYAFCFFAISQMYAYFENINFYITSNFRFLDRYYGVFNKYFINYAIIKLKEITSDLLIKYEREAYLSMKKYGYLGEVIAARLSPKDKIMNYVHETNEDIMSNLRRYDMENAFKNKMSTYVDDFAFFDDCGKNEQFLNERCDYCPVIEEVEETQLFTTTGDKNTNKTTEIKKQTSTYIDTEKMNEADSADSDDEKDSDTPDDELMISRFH

Substance “HA-tagged Dd2 CLAG3 protein (TFLC3 parasite) (natural protein)” registered a percent of the HA-tagged isoform coprecipitated on anti-FLAG beads of 1 to 10%.
